Laboratory results as given in article PMC6599478.

Experiments:
[1] = target: HIV-1 clade B Tier 1A chronic virus MN.3 gp120 Env (HIV-1 (clade B, MN.3)) (UniProt P05877)
[2] = target: HIV-1 MN.3 Env with the glycan mutation N332A, on pseudovirus (HIV-1 (clade B, MN.3)) (UniProt P05877)

With “recombinant full length Tenascin-C, large isoform (TNC-L) (from UniProt P24821 23-2201) (natural protein)” as the substance, how does the IC50 of neutralisation of wild type HIV-1 MN.3 virus, TZM-bl reporter cells [1] read?
The IC50 of neutralisation of wild type HIV-1 MN.3 virus, TZM-bl reporter cells was 31 µg/mL.

Which IC50 of neutralisation of HIV-1 MN.3 N332A pseudovirus, TZM-bl reporter cells [2] does the source give for “recombinant full length Tenascin-C, large isoform (TNC-L), P24821 23-2201” here?
Its IC50 of neutralisation of HIV-1 MN.3 N332A pseudovirus, TZM-bl reporter cells is 113 µg/mL.
